# Measured values from paper PMC5840397.
# pKd: −log10 of the molar value.
# How the values were obtained:
# [1] = target: C-terminally His-tagged human ECRG4(32–148) (human) (UniProt Q9H1Z8); assay: SPR; ProteOn XPR36, GLM chip; His-tagged ECRG4 peptides captured by immobilised anti-His antibody; 2 × CTLD–Fc injected at 15.6–250 nM, 60 s association, 120 s dissociation; HBS (10 mM HEPES pH 7.4, 150 mM NaCl, 3 mM EDTA, 0.05% P20); Langmuir model
# [2] = target: C-terminally His-tagged human ECRG4(71–132) (human) (UniProt Q9H1Z8); assay: as above
# C-terminally His-tagged human ECRG4(71–132) (human), sequence (Q9H1Z8 71-132): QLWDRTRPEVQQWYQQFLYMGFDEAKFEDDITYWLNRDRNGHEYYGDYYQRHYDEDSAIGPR
# [3] = target: C-terminally His-tagged human ECRG4(71–148) (human) (UniProt Q9H1Z8); assay: as above
# C-terminally His-tagged human ECRG4(71–148) (human), sequence (Q9H1Z8 71-148): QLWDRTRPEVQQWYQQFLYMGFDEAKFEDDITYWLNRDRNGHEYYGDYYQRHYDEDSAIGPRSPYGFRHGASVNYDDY
# LOX-1 (Homo sapiens) = LOX-1 (Homo sapiens) (UniProt P78380); details: cited from earlier work
# CRP, sequence (P02741 19-224): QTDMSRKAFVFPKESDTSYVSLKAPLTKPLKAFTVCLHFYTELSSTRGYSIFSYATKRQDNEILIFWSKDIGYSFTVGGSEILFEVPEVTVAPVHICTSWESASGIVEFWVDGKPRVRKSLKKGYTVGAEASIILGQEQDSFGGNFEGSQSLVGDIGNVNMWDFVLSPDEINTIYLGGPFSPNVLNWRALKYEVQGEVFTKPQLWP
# C-terminally His-tagged human ECRG4(32–148) (human), sequence (Q9H1Z8 32-148): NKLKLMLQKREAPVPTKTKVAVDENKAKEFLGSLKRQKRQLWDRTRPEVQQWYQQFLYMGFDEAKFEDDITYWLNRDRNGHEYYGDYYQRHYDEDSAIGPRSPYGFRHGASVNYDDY
pKd [1],pKd [2],pKd [3],Substance,pKd (LOX-1 (Homo sapiens))
8.00,8.00,8.00,"2 × CTLD–Fc (two human LOX-1 CTLDs in tandem, Fc-fused) (Fc fusion)",
,,,CRP (from UniProt P02741),6.80
